The values that follow come from publication PMC1888729.

Test [1] addresses T1, His-tagged U2AF35 (HEK-293E), Q01081.
T1 chain: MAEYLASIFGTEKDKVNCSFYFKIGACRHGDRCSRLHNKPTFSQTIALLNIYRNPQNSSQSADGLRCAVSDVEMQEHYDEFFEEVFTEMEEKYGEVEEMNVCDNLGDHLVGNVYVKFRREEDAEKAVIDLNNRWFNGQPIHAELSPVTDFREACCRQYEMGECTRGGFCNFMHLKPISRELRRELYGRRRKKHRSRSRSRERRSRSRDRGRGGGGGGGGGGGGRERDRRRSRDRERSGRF
Briefly: pull-down; His-tagged U2AF35 expressed in 293E cells, lysate (50 mM Tris-HCl pH 8, 1% NP-40, 5 mM imidazole) on Ni-NTA agarose 1 h at 4°C, wash 0.5 M NaCl, eluted with 0.5 M imidazole; western blot; amounts by Coomassie stain against BSA. The note with it: remark: other sources report otherwise. (In general: In western blotting, separated proteins are transferred to a membrane and probed.)

Test [2] addresses T2, U2AF35 (recombinant human, baculovirus-infected SF9 cells) (human), Q01081.
T2 chain: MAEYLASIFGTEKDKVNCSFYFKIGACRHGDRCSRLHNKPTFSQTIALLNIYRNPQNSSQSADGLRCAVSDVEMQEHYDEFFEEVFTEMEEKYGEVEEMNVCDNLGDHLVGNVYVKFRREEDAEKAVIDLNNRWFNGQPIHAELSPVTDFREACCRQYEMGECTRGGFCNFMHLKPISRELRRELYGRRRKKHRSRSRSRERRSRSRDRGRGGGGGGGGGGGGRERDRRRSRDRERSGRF
Briefly: co-purification; human U2AF65/35 heterodimer purified from baculovirus-infected SF9 cells as described previously. Conditions: remark: other sources report otherwise.

B1: U2AF65 (co-purified from HEK-293E), P26368 1-475 (natural protein)
chain: MSDFDEFERQLNENKQERDKENRHRKRSHSRSRSRDRKRRSRSRDRRNRDQRSASRDRRRRSKPLTRGAKEEHGGLIRSPRHEKKKKVRKYWDVPPPGFEHITPMQYKAMQAAGQIPATALLPTMTPDGLAVTPTPVPVVGSQMTRQARRLYVGNIPFGITEEAMMDFFNAQMRLGGLTQAPGNPVLAVQINQDKNFAFLEFRSVDETTQAMAFDGIIFQGQSLKIRRPHDYQPLPGMSENPSVYVPGVVSTVVPDSAHKLFIGGLPNYLNDDQVKELLTSFGPLKAFNLVKDSATGLSKGYAFCEYVDINVTDQAIAGLNGMQLGDKKLLVQRASVGAKNATLVSPPSTINQTPVTLQVPGLMSSQVQMGGHPTEVLCLMNMVLPEELLDDEEYEEIVEDVRDECSKYGLVKSIEIPRPVDGVEVPGCGKIFVEFTSVFDCQKAMQGLTGRKFANRVVVTKYCDPDSYHRRDFW
B1 gave a stoichiometry N (U2AF35 per U2AF65) in test [1] of 3.5.

B2: U2AF65 (recombinant human, baculovirus-infected SF9 cells), P26368 1-475 (natural protein)
chain: MSDFDEFERQLNENKQERDKENRHRKRSHSRSRSRDRKRRSRSRDRRNRDQRSASRDRRRRSKPLTRGAKEEHGGLIRSPRHEKKKKVRKYWDVPPPGFEHITPMQYKAMQAAGQIPATALLPTMTPDGLAVTPTPVPVVGSQMTRQARRLYVGNIPFGITEEAMMDFFNAQMRLGGLTQAPGNPVLAVQINQDKNFAFLEFRSVDETTQAMAFDGIIFQGQSLKIRRPHDYQPLPGMSENPSVYVPGVVSTVVPDSAHKLFIGGLPNYLNDDQVKELLTSFGPLKAFNLVKDSATGLSKGYAFCEYVDINVTDQAIAGLNGMQLGDKKLLVQRASVGAKNATLVSPPSTINQTPVTLQVPGLMSSQVQMGGHPTEVLCLMNMVLPEELLDDEEYEEIVEDVRDECSKYGLVKSIEIPRPVDGVEVPGCGKIFVEFTSVFDCQKAMQGLTGRKFANRVVVTKYCDPDSYHRRDFW
For the molecule B2, the stoichiometry N (U2AF35 per U2AF65) in test [2] was determined as 1.
